Assay results as given in article PMC9043764.

B1: cathepsin V (CTSV): N221Q (protein)
parent chain: MNLSLVLAAFCLGIASAVPKFDQNLDTKWYQWKATHRRLYGANEEGWRRAVWEKNMKMIELHNGEYSQGKHGFTMAMNAFGDMTNEEFRQMMGCFRNQKFRKGKVFREPLFLDLPKSVDWRKKGYVTPVKNQKQCGSCWAFSATGALEGQMFRKTGKLVSLSEQNLVDCSRPQGNQGCNGGFMARAFQYVKENGGLDSEESYPYVAVDEICKYRPENSVANDTGFTVVAPGKEKALMKAVATVGPISVAMDAGHSSFQFYKSGIYFEPDCSSKNLDHGVLVVGYGFEGANSNNSKYWLVKNSWGPEWGSNGYVKIAKDKNNHCGIATAASYPNV
B2: cathepsin V (CTSV): N292Q (protein)
parent chain: B1 parent chain
B3: cathepsin V (CTSV): 2NQ (protein)
parent chain: B1 parent chain

Experiment: Western blot of supernatant and whole cell lysate, A549
Settings: glycan lost; control: wild type CTSV

expression_or_secretion, decreases:
B1, B2, B3
